In the supplement of paper PMC9170038:

System: MS2 coat protein
Assay: apparent KD of MS2 coat protein; higher = weaker reporter binding
Details: Eterna round: R107
In short: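 Illumina sequencing clusters served as templates for on-chip transcription of the designed RNA switches. SNAP-549-labelled MS2 coat protein was then titrated in twofold steps from 0.7 or 1.5 nM to 3 µM, allowing 0.8–1.5 h per step at first and 10–20 min per step later. The buffer held 100 mM Tris-HCl pH 7.5, 80 mM KCl and 4 mM MgCl2, without or with constant ligand. Apparent KD is the median per design of normalised cluster binding-curve fits.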

[1] = input ligand: theophylline 20 uM
[2] = input ligand: tryptophan 2.4 mM
[3] = input ligand: theophylline 2 mM

Sequence | apparent KD of MS2 coat protein (input ligand: arginine 13.2 mM) | apparent KD of MS2 coat protein [1] | apparent KD of MS2 coat protein [2] | apparent KD of MS2 coat protein (input ligand: none) | apparent KD of MS2 coat protein [3]
GGUGGGACUUGUGAUACCAGCCUAAUUCUAAACGAAUUGCACAUGAGGAUCACCCAUGUCGGCCCUUGGCAGCAUGAGUAUUUAU [Anartiison] | 73.3 nM | 104 nM | 117 nM | – | –
UUUUUUAUUAUGGCGUAUCGGAAAACCGAUACCAGUACAGAAAUGUACCCUUGGCAGCGGCGUUUUACAUGAGGAUCACCCAUGU [Ex Theophylline A 5] | 12.4 nM | 18.9 nM | 15.4 nM | – | –
GGACUAACCAGAAGGAGCGACGCAAAGCAGAAACUGCAUCCUCCGCACGAGGAUCACCCGUGUCAGGUAGGUCGCUGGUUAGUCG [ArgBX 28] | 18.8 nM | 24.7 nM | 21.7 nM | 17.7 nM | 26.3 nM
CUGCCACGAACGGCCGCCACUUACAUGAGGAUCACCCAUGUGCCUGCGCACAAAGAAUGUCAAGAAAGGACCGGGUUCAAAUAGU [theeternabot_exclusion_MS2_Trp_B_41] | 43.2 nM | 177 nM | – | – | 132 nM
CUCAUCCACGCGGCCGCCACUAUUUUUAGGUGUGGGUGUGACGUAUUACAUGAGGAUCACCCAUGUAGGACCGGGCGUGGAUGAG [Walrus] | 117 nM | 414 nM | – | – | 491 nM
GAGUAAACUACGGCCGCCACUCAAGGAGAUCAAUAGAUCAUCGACAUGAGGAUCACCCAUGUAAAGAGGACCGGGUAGAUCCUUA [Same State Typrtophan B GF1] | 97.8 nM | 98.9 nM | 100 nM | 214 nM | 362 nM
UAUCGAAACUGAAGGAGCGAGAUGACAAACAUGAGGAUCACCCAUGUUAUGGGUUGUUAAUCUCAGGUAGGUCGCAGUGGUAGCA [Same State Arginine B GF 17] | 88.1 nM | 142 nM | 156 nM | 141 nM | 245 nM
UUAGAUAUGACGGAUACCAGCGUGUUGUAGAACAUGAGGAUCACCCAUGUAGUGAUCAUGCGCCCUUGGCAGCUGGUAUGUUUGG [7.U] | 178 nM | 386 nM | 566 nM | – | –
AAAAUCCUACCUGAGGAUCACCCAGGUGAAGGAGCGCCCGAAAGGGCAGGUAGGUCGCACCUGAGGAUCACCCUGGUAACCUAAA [ArgEX 11 #DoubleMS2 #OpenEnded #AlternativeMS2] | 28.1 nM | 69 nM | 38.6 nM | 48 nM | 51.7 nM
ACAUGAGGAUCACCCAUGUGGCGACUUGAUACCAGACCCGCACUAGUCCCUUGGCAGCAACUACGUGAGGGUCACCCAUGUGAAG [vndullin] | 35.5 nM | 29.3 nM | 18.3 nM | 20 nM | 28.9 nM
UGGUGCCCUGUAUACAUUGUAAUCCUAAUGCGAGGACCGGUACGGCCGCCACUCGUUGCGGAACAUGAGGAUCACCCAUGUAACA [theeternabot_exclusion_MS2_Trp_A_21] | 17 nM | 26.2 nM | – | – | 32 nM
AUUUGUACUUAGUGUUGAGUUCUGUCGGAAGGAGCGGAAUAUAAUCCAGGUAGGUCGCCGACAGACAUGAGGAUCACCCAUGUAA [#09 Exclusion - Arginine A] | 28.2 nM | 38.9 nM | 32.3 nM | 38.3 nM | 34.7 nM
ACACGAAGCUGAAGGAGCGUGAUAUAAAUUUUUACAUGAGGAUCACCCAUGUUUCAUCGAUCACAGGUAGGUCGCAGAUGCGUGA [JR_SSArginiB_Sub013] | 15.2 nM | 16.9 nM | 14.8 nM | 14.4 nM | 16.9 nM
CUUGACAUGAGGAUCACCCAUGUUGGUAAACGAGGACCGGUACGGCCGCCACUCGGUUACGUGUAGUACCGGUAAGAUCCAGGGU [Default title] | 24.8 nM | 42.6 nM | – | – | 39 nM
UUUUAAGGGAUCGGUGCUGGUAGCAGAGAUACCAGAGUAAUGAUACUCCCUUGGCAGCUCAGUACAUGAGGAUCACCCAUGUUUU [Exclusion Theophylline A GF25] | 16.7 nM | 23.2 nM | 18.1 nM | – | –
CUAUAGAUAAGAAGGAGCGACAUGAGGAUCACCCAUGUCUACCACGUCGAAAGACGCUCAUGUCAGGUAGGUCGCUUAUUUAUAG [Astros-Eli-mod7] | 71.1 nM | 99.2 nM | 84.1 nM | 117 nM | 129 nM
